Reference: patent US9144594B2, “Cathepsin L mediated diseases and associated methods and products” (University of Miami, priority 2005, dated 2015)
Residue numbers refer to the chain shown, from its start. Names and notes keep the numbering of the source.

How the values were obtained:
[1] = system: LPS induced mouse proteinuria model; assay: LPS induced mouse proteinuria model, protein in urine (prevention and reversal by dynamin gene delivery); assay type: in vivo
Method: Next, it was examined whether gene transfer of dynR725A and dynL356Q, G358V was able to protect from LPS induced changes of podocyte FP and thus proteinuria (FIGS. 6A-B); (Table 2B). […] Whereas the application of wildtype dynamin was unable to protect from LPS induced podocyte FP effacement (data not shown) and proteinuria (0.63 mg/ml after 24 hours, p<0.05 and 1.18 mg/ml after 48 hours, p<0.04); table 2B, the co-administration of R725A together with LPS completely abolished the development of proteinuria after 24 hours (0.20 mg/ml). Podocyte FPs remained normal at this timepoint (FIG. 6B). The decline of R725A expression in podocytes was then associated with the development of proteinuria (1.25 mg/ml, 48 h). At this time point, there was noticeable podocyte FP effacement. The application of the cathepsin L resistant dynamin mutant L356Q, G358V together with LPS conferred a partial protection from proteinuria (0.47 mg/ml, P<0.05). This protection was associated with normal appearing podocyte FP (FIG. 6C). Although this protection was not as strong as the one provided by dynR725A, it was prolonged and was still present even after the second dose of LPS ([…], P<0.04). This observation argues that lower expression levels of dynL356Q, G358V are required to protect from LPS induced FP effacement but the presence of dynR725A has the most powerful protection.
Another set of experiments was carried out to study whether dynR725A and dynL356Q, G358V are also useful once there is already established podocyte damage and proteinuria (reversal experiments), (FIGS. 6C, D); (Table 2C). First LPS was injected in mice at 0 and 24 hours and the course of urinary protein loss was documented. On the peak phase of proteinuria at 48 hours after the first LPS injection, either delivery solution (control), dynR725A or dynL356Q, G358V dynamin mutants were transferred and the morphology of podocyte FP was analyzed and the degree of proteinuria was determined 10 hours later when there was strong expression of the transferred gene in podocytes. […] A dramatic reformation of podocyte FPs was also observed (FIG. 6C). The same observation was true for L356Q, G358V (FIG. 6D) which was able to reduce proteinuria from 1.20 mg/ml to 0.71 mg/ml). From the in vitro data it was determined that R725A starts to self assemble into higher order structures in the LPS setting which render dynamin assembly domain protected from cathepsin L cleavage. […] In addition, dominant activating dynR725A proves useful because despite causing podocyte damage in wildtype mice, it can resist cathepsin L cleavage by self assembly in the LPS setting and have strong activity by impairment in its GTP hydrolysis.
If dynamin is a target of CatL, then dynL356Q and dynR725A, which are resistant to CatL cleavage, might protect kidneys from LPS. In control mice, two injections of LPS led to FP effacement (FIG. 21C) and a large increase in proteinuria (FIG. 21E, Con).
Next it was examined whether dynL356Q and dynR725A can reverse already established proteinuria. LPS was injected into mice at 0 and 24 hours. At the peak of proteinuria at 48 hours, mice were injected with dynWT, dynL356Q, or dynR725A, and the degree of proteinuria was analyzed 12 hours post injection. […] The rescue could be achieved with both podocin and CMV-driven protein expression.
All animal studies were approved by the MGH Subcommittee for Research Animal Care. C57BL6 mice were obtained from Jackson Laboratory (Bar Harbor, Me.). CatL−/− mice are in a pure C57BL6 background (Nakagawa et al., Science 280, 450-453 (1998)). LPS induced mouse proteinuria model was utilized as previously described (Reiser et al., J Clin Invest 113, 1390-1397 (2004)). Rat PAN nephrosis model was induced by a single intravenous injection of PAN (180 mg/kg body wt; Sigma-Aldrich, St. Louis, Mo.) (Kim et al., Am J Physiol Renal Physiol 286, F922-935 (2004)). […]

podocytes = assay: Podocyte motility, modified Boyden chamber assay; assay type: cell-based, mouse; conditions: adenoviral overexpression
Description: This study examined the role of dynamin in actin dynamics of podocytes. An adenoviral expression system was utilized to obtain expression of various dynamin mutants with more than 90% infection efficiency in cultured differentiated mouse podocytes and analyzed the organization of the actin cytoskeleton, their migratory and endocytotic behavior (FIG. 1). […] This type of actin rearrangement in cultured podocytes is resembling actin rearrangement in damaged podocytes during proteinuria in situ (Smoyer and Mundel, 1998). […] Thus, the consequence on actin dynamics in podocytes was examined when dynamin is hyperactive by expressing known dominant activators, dynK694A and dynR725A (SEQ ID NO.4). Both mutants are predicted to live longer in the GTP-bound form. […] To further examine this surprising phenotype in a biological context, motility assays were performed next using a modified Boyden Chamber assay.
Podocyte migration was analyzed using a 12-well chemotaxis chamber (Neuro Probe) according to the manufacturer's protocol. In brief, differentiated podocytes were treated with 50 μg/ml of LPS or PAN for 24 h and then harvested for the migration assay. Bottom plates were coated with type-I collagen, while upper plates were loaded with equal number of cells (5×10^4) suspended in medium. The chamber was incubated at 37° C. for 4 h before unassembled. The membrane was then taken out, processed and finally stained with diamidino phenylindole (DAPI) (Vector). The average number of migrated cells was counted in four fields in six independent experiments.
Podocytes were grown under non-permissive conditions to 70% confluence. Cells were washed twice with 1×PBS and infected with 1.2 ml of serum-free DMEM media containing 100 μl transactivator virus, 100 μl virus expressing dyn1 or dyn2. After 2 h of infection at 37° C., media containing virus was replaced with full DMEM. If cells were treated with LPS or PAN, 50 μg/ml of LPS or 50 μg/ml PAN was added at this point. 18-24 h post-infection, cells were detached using trypsin and processed either for subcellular fractionation or tested in the motility assays as described in (Reiser et al., J Biol Chem 279, 34827-34832 (2004)). When stated, 20 μM of Z-FF-FMK CatL specific inhibitor (Calbiochem, San Diego, Calif.) was added simultaneously with addition of LPS.

[2] = Table 2B Prevention, 2xLPS, t = 0
[3] = Table 2B Prevention, 2xLPS, t = 10 h
[4] = Table 2C Reversal, LPS at 0 and 24 h, t = 0
[5] = gene delivery immediately before LPS injection

Molecule: dynWT: wild type dynamin overexpressed by adenovirus or delivered as dynamin 1 cDNA
- Protein in the urine [1, 2]: 0.28 ± 0.07 mg/mL
- Protein in the urine [1, 3]: 0.27 ± 0.07 mg/mL
- Protein in the urine ([1]; Table 2B Prevention, 2xLPS, t = 24 h, listed as Dyn WT): 0.63 ± 0.12 mg/mL
- Protein in the urine ([1]; Table 2B Prevention, 2xLPS, t = 24 h, listed as wildtype dynamin): 0.63 mg/mL
- Protein in the urine ([1]; Table 2B Prevention, 2xLPS, t = 48 h, listed as Dyn WT): 1.18 ± 0.23 mg/mL
- Protein in the urine ([1]; Table 2B Prevention, 2xLPS, t = 48 h, listed as wildtype dynamin): 1.18 mg/mL
- Protein in the urine [1, 4]: 0.30 ± 0.10 mg/mL
- Protein in the urine ([1]; Table 2C Reversal, t = 48 h, at gene transfer, listed as Dyn WT): 1.17 ± 0.18 mg/mL
- Protein in the urine ([1]; Table 2C Reversal, t = 48 h, at gene transfer, listed as wildtype dynamin): 1.26 mg/mL
- Protein in the urine ([1]; Table 2C Reversal, t = 58 h, 10 hours after gene transfer, listed as Dyn WT): 1.10 ± 0.17 mg/mL
- Protein in the urine ([1]; Table 2C Reversal, t = 58 h, 10 hours after gene transfer, listed as wildtype dynamin): 1.32 mg/mL
- protection from LPS-induced proteinuria, in words [1, 5]: did not protect against these changes
- reversal of established proteinuria, in words ([1]; injected at 48 hours, analyzed 12 hours post injection): did not reduce proteinuria
- podocyte motility, in words (podocytes): did not change podocyte motility

B1: dynK44A: dominant-negative dynamin mutant that cannot bind GTP (protein, UniProt Q05193 1-864, looked up, variant K44A)
Dynamin-1: MGNRGMEDLIPLVNRLQDAFSAIGQNADLDLPQIAVVGGQSAGASSVLENFVGRDFLPRGSGIVTRRPLVLQLVNATTEYAEFLHCKGKKFTDFEEVRLEIEAETDRVTGTNKGISPVPINLRVYSPHVLNLTLVDLPGMTKVPVGDQPPDIEFQIRDMLMQFVTKENCLILAVSPANSDLANSDALKVAKEVDPQGQRTIGVITKLDLMDEGTDARDVLENKLLPLRRGYIGVVNRSQKDIDGKKDITAALAAERKFFLSHPSYRHLADRMGTPYLQKVLNQQLTNHIRDTLPGLRNKLQSQLLSIEKEVEEYKNFRPDDPARKTKALLQMVQQFAVDFEKRIEGSGDQIDTYELSGGARINRIFHERFPFELVKMEFDEKELRREISYAIKNIHGIRTGLFTPDMAFETIVKKQVKKIREPCLKCVDMVISELISTVRQCTKKLQQYPRLREEMERIVTTHIREREGRTKEQVMLLIDIELAYMNTNHEDFIGFANAQQRSNQMNKKKTSGNQDEILVIRKGWLTINNIGIMKGGSKEYWFVLTAENLSWYKDDEEKEKKYMLSVDNLKLRDVEKGFMSSKHIFALFNTEQRNVYKDYRQLELACETQEEVDSWKASFLRAGVYPERVGDKEKASETEENGSDSFMHSMDPQLERQVETIRNLVDSYMAIVNKTVRDLMPKTIMHLMINNTKEFIFSELLANLYSCGDQNTLMEESAEQAQRRDEMLRMYHALKEALSIIGDINTTTVSTPMPPPVDDSWLQVQSVPAGRRSPTSSPTPQRRAPAVPPARPGSRGPAPGPPPAGSALGGAPPVPSRPGASPDPFGPPPQVPSRPNRAPPGVPSRSGQASPSRPESPRPPFDL
- podocyte motility, in words (podocytes): dramatically increased cell motility

B2: dynK694A: dominant activator dynamin mutant impaired in self-assembly (protein)
chain: B1 Dynamin-1 with A44K, K694A
- podocyte motility, in words (podocytes): did not change podocyte motility

B3: dynL356Q, G358V: dynamin mutant (SEQ ID NO.3) not recognized by cathepsin L; ELSGGA mutated to EQSVGA (protein, listed as Homo sapiens)
chain: B1 Dynamin-1 with A44K, L356Q, G358V
- Protein in the urine [1, 2]: 0.21 ± 0.05 mg/mL
- Protein in the urine [1, 3]: 0.26 ± 0.05 mg/mL
- Protein in the urine ([1]; Table 2B Prevention, 2xLPS, t = 24 h, listed as Dyn L356Q, G358V): 0.47 ± 0.17 mg/mL
- Protein in the urine ([1]; Table 2B Prevention, 2xLPS, t = 24 h, listed as L356Q, G358V): 0.47 mg/mL
- Protein in the urine ([1]; Table 2B Prevention, 2xLPS, t = 48 h): 0.65 ± 0.10 mg/mL
- Protein in the urine [1, 4]: 0.18 ± 0.08 mg/mL
- Protein in the urine ([1]; Table 2C Reversal, t = 48 h, at gene transfer, listed as Dyn L356Q, G358V): 1.20 ± 0.27 mg/mL
- Protein in the urine ([1]; Table 2C Reversal, t = 48 h, at gene transfer, listed as L356Q, G358V): 1.20 mg/mL
- Protein in the urine ([1]; Table 2C Reversal, t = 58 h, 10 hours after gene transfer, listed as Dyn L356Q, G358V): 0.71 ± 0.09 mg/mL
- Protein in the urine ([1]; Table 2C Reversal, t = 58 h, 10 hours after gene transfer, listed as L356Q, G358V): 0.71 mg/mL
- reduction of proteinuria [1, 5]: ~50%
- proteinuria ([1]; prevention, after the second dose of LPS): 0.65 mg/dL
- reduction of proteinuria ([1]; reversal, injected at 48 hours, analyzed 12 hours post injection): ~50%
